Changes are numbered by the printed parent chain. Read-outs that look alike come from different tables or passages of the source.
Columns and labels:
RBM39 RRM2 [1] = biological target: T1, RBM39 RRM2 (UniProt Q14498 247-332); assay: NMR CSP
T1 sequence: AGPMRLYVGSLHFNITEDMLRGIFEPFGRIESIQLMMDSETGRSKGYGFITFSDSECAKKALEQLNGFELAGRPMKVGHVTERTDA

GB1-RBM39-RRM12 = biological target: T2, GB1-RBM39-RRM12 (UniProt Q14498 143-332); assay: NMR CSP
T2 sequence: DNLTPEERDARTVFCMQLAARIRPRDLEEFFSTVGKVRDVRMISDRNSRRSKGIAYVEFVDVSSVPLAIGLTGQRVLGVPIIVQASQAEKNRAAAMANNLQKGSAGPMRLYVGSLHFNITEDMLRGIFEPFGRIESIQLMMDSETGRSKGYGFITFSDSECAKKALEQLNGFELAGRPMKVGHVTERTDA

RBM39 RRM2 [2] = biological target: T1, RBM39 RRM2; assay: NMR CSP; remark: listed apart in the source
RBM39 RRM12 = biological target: T3, RBM39 RRM12 (UniProt Q14498 143-332); assay: NMR CSP
T3 sequence: T2 sequence

RBM39 RRM1 = biological target: T4, RBM39 RRM1 (UniProt Q14498 142-237); assay: NMR solution structure
T4 sequence: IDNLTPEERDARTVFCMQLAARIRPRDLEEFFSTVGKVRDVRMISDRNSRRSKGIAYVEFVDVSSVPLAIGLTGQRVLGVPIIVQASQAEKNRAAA

RBM39 RRM2 [3] = biological target: T1, RBM39 RRM2; assay: ITC
RBM39 RRM2 F259A = biological target: T5, RBM39 RRM2 F259A (UniProt Q14498 247-332, F259A); assay: ITC
T5 sequence: T1 sequence with F13A

ACCUUUG (ssRNA) [BS2 (ACCUUUG)]: binds (RBM39 RRM2 [1]).

GGACUGUCCACAAGACAGUCG (structured_RNA) [RBMY stem-loop aptamer]: binds (GB1-RBM39-RRM12).

CCUCCCA (ssRNA) [mutBS1 (CCUCCCA)]: no binding (RBM39 RRM2 [2]).

GGGAUUUCCCCAAAUGUGGGAAACUCCC (structured_RNA) [U1 snRNA SL3]: binds (RBM39 RRM12); binds (RBM39 RRM1).

CUCUUUG (ssRNA) [BS1 (CUCUUUG)]: binds (RBM39 RRM2 [1]).

GGGGACUGCGUUCGCGCUUUCCCC (structured_RNA) [U1 snRNA SL4]: binds (GB1-RBM39-RRM12).

For AGCUUUG (ssRNA) [AGCUUUG ssRNA], the Kd (RBM39 RRM2 [3]) was 9 ± 2 µM and the binding signal (RBM39 RRM2 F259A) was 4 fold lower affinity than WT.

Source: paper doi:10.1101/2022.08.30.505862
